Data reported in patent publication US10005829B2, “Synthetic linear apelin mimetics for the treatment of heart failure” (priority 2012, dated 2018).
Where a SMILES comes first, the peptide text is derived from it. [ ]: non-standard residue; d: D form. The star is where a group is joined. Pro(trans-4-Ph) = O=C(O)[C@@H]1C[C@@H](c2ccccc2)CN1; Cha = N[C@@H](CC1CCCCC1)C(=O)O; pGlu = O=C1CC[C@@H](C(=O)O)N1; dNle = CCCC[C@@H](N)C(=O)O; dNva = CCC[C@@H](N)C(=O)O; Bn = c1ccc(C*)cc1

T1: APJ receptor (human, UniProt P35414 1-380)
T1 sequence (looked up): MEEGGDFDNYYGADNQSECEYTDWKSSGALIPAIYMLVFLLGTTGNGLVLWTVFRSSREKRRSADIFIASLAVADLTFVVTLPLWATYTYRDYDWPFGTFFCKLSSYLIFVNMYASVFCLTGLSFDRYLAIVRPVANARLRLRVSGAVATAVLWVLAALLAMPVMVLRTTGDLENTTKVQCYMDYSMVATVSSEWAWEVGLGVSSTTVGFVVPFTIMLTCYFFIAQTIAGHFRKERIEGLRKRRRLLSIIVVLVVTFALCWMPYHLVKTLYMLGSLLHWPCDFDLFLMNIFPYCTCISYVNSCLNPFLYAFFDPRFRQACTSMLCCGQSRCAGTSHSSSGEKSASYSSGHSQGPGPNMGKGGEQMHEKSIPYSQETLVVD


Target: T1, APJ receptor
Assay: cell-based or functional assay
Details: not given

Molecule | hAPJ Ca^2+ Flux EC50
[pGlu]RPRL[dA]HEGP[dNle][dA][dF]-OH (SMILES CCCC[C@@H](NC(=O)[C@@H]1CCCN1C(=O)CNC(=O)[C@H](CCC(=O)O)NC(=O)[C@H](Cc1c[nH]cn1)NC(=O)[C@@H](C)NC(=O)[C@H](CC(C)C)NC(=O)[C@H](CCCNC(=N)N)NC(=O)[C@@H]1CCCN1C(=O)[C@H](CCCNC(=N)N)NC(=O)[C@@H]1CCC(=O)N1)C(=O)N[C@H](C)C(=O)N[C@H](Cc1ccccc1)C(=O)O) [pE-R-P-R-L-a-H-E-G-P-nle-a-f-OH] | 200 nM
[pGlu]RPRLS[dH]KGP[dNle][dA][dF]-OH (SMILES CCCC[C@@H](NC(=O)[C@@H]1CCCN1C(=O)CNC(=O)[C@H](CCCCN)NC(=O)[C@@H](Cc1c[nH]cn1)NC(=O)[C@H](CO)NC(=O)[C@H](CC(C)C)NC(=O)[C@H](CCCNC(=N)N)NC(=O)[C@@H]1CCCN1C(=O)[C@H](CCCNC(=N)N)NC(=O)[C@@H]1CCC(=O)N1)C(=O)N[C@H](C)C(=O)N[C@H](Cc1ccccc1)C(=O)O) [pE-R-P-R-L-S-h-K-G-P-nle-a-f-OH] | 6.8 nM
[pGlu]RPRLA[dH]KGP[dNle][dA][dF]-OH [pE-R-P-R-L-A-h-K-G-P-nle-a-f-OH] | 55.1 nM
[pGlu]R[Pro(trans-4-Ph)]RL[dA]HKGP[dNle][dA][dF]-OH [pE-R-(trans-4-PhP)-R-L-a-H-K-G-P-nle-a-f-OH] | 9.9 nM
H-RPRL[dA]HKGP[dNle][dF]-OH (SMILES CCCC[C@@H](NC(=O)[C@@H]1CCCN1C(=O)CNC(=O)[C@H](CCCCN)NC(=O)[C@H](Cc1c[nH]cn1)NC(=O)[C@@H](C)NC(=O)[C@H](CC(C)C)NC(=O)[C@H](CCCNC(=N)N)NC(=O)[C@@H]1CCCN1C(=O)[C@@H](N)CCCNC(=N)N)C(=O)N[C@H](Cc1ccccc1)C(=O)O) [H-R-P-R-L-a-H-K-G-P-nle-f-OH] | 1.4 nM
ERPRLAHKGPLF (pE at 1; D-Ala at 6; D-Nle at 11; D-Phe at 12) [pE-R-P-R-L-a-H-K-G-P-nle-f-OH] | 3.1 nM
[pGlu]RPRLS[dF]KGP[dNle][dA][dF]-OH (SMILES CCCC[C@@H](NC(=O)[C@@H]1CCCN1C(=O)CNC(=O)[C@H](CCCCN)NC(=O)[C@@H](Cc1ccccc1)NC(=O)[C@H](CO)NC(=O)[C@H](CC(C)C)NC(=O)[C@H](CCCNC(=N)N)NC(=O)[C@@H]1CCCN1C(=O)[C@H](CCCNC(=N)N)NC(=O)[C@@H]1CCC(=O)N1)C(=O)N[C@H](C)C(=O)N[C@H](Cc1ccccc1)C(=O)O) [pE-R-P-R-L-S-f-K-G-P-nle-a-f-OH] | 72.8 nM
[pGlu]RPRL[dA]HKGP[dF][dA][dF]-OH (SMILES CC(C)C[C@H](NC(=O)[C@H](CCCNC(=N)N)NC(=O)[C@@H]1CCCN1C(=O)[C@H](CCCNC(=N)N)NC(=O)[C@@H]1CCC(=O)N1)C(=O)N[C@H](C)C(=O)N[C@@H](Cc1c[nH]cn1)C(=O)N[C@@H](CCCCN)C(=O)NCC(=O)N1CCC[C@H]1C(=O)N[C@H](Cc1ccccc1)C(=O)N[C@H](C)C(=O)N[C@H](Cc1ccccc1)C(=O)O) [pE-R-P-R-L-a-H-K-G-P-f-a-f-OH] | 1.5 nM
[pGlu]RPR[Cha][dNva]HKGP[dNle][dA][dF]-OH (SMILES CCCC[C@@H](NC(=O)[C@@H]1CCCN1C(=O)CNC(=O)[C@H](CCCCN)NC(=O)[C@H](Cc1c[nH]cn1)NC(=O)[C@@H](CCC)NC(=O)[C@H](CC1CCCCC1)NC(=O)[C@H](CCCNC(=N)N)NC(=O)[C@@H]1CCCN1C(=O)[C@H](CCCNC(=N)N)NC(=O)[C@@H]1CCC(=O)N1)C(=O)N[C@H](C)C(=O)N[C@H](Cc1ccccc1)C(=O)O) [pE-R-P-R-Cha-nva-H-K-G-P-nle-a-f-OH] | 9.4 nM
[pGlu]RPRLS[dA]KGP[dNle][dA][dF]-OH (SMILES CCCC[C@@H](NC(=O)[C@@H]1CCCN1C(=O)CNC(=O)[C@H](CCCCN)NC(=O)[C@@H](C)NC(=O)[C@H](CO)NC(=O)[C@H](CC(C)C)NC(=O)[C@H](CCCNC(=N)N)NC(=O)[C@@H]1CCCN1C(=O)[C@H](CCCNC(=N)N)NC(=O)[C@@H]1CCC(=O)N1)C(=O)N[C@H](C)C(=O)N[C@H](Cc1ccccc1)C(=O)O) [pE-R-P-R-L-S-a-K-G-P-nle-a-f-OH] | 8.5 nM
[pGlu]RPRL[dA]HKDP[dNle][dA][dF]-OH (SMILES CCCC[C@@H](NC(=O)[C@@H]1CCCN1C(=O)[C@H](CC(=O)O)NC(=O)[C@H](CCCCN)NC(=O)[C@H](Cc1c[nH]cn1)NC(=O)[C@@H](C)NC(=O)[C@H](CC(C)C)NC(=O)[C@H](CCCNC(=N)N)NC(=O)[C@@H]1CCCN1C(=O)[C@H](CCCNC(=N)N)NC(=O)[C@@H]1CCC(=O)N1)C(=O)N[C@H](C)C(=O)N[C@H](Cc1ccccc1)C(=O)O) [pE-R-P-R-L-a-H-K-D-P-nle-a-f-OH] | 95.9 nM

Further lines, results first:

hAPJ Ca^2+ Flux EC50 | Molecule
693 nM | [pGlu]RPRL[dCys(tBu)]HKGP[dNle][dA][dF]-OH [pE-R-P-R-L-c(tBu)-H-K-G-P-nle-a-f-OH]
7.4 nM | [pGlu]RPRL[dA]HQGP[dNle][dA][dF]-OH (SMILES CCCC[C@@H](NC(=O)[C@@H]1CCCN1C(=O)CNC(=O)[C@H](CCC(N)=O)NC(=O)[C@H](Cc1c[nH]cn1)NC(=O)[C@@H](C)NC(=O)[C@H](CC(C)C)NC(=O)[C@H](CCCNC(=N)N)NC(=O)[C@@H]1CCCN1C(=O)[C@H](CCCNC(=N)N)NC(=O)[C@@H]1CCC(=O)N1)C(=O)N[C@H](C)C(=O)N[C@H](Cc1ccccc1)C(=O)O) [pE-R-P-R-L-a-H-Q-G-P-nle-a-f-OH]
0.9 nM | [pGlu]RPRL[dA]HKGP[dNle][dNva][dF]-OH (SMILES CCCC[C@@H](NC(=O)[C@@H]1CCCN1C(=O)CNC(=O)[C@H](CCCCN)NC(=O)[C@H](Cc1c[nH]cn1)NC(=O)[C@@H](C)NC(=O)[C@H](CC(C)C)NC(=O)[C@H](CCCNC(=N)N)NC(=O)[C@@H]1CCCN1C(=O)[C@H](CCCNC(=N)N)NC(=O)[C@@H]1CCC(=O)N1)C(=O)N[C@H](CCC)C(=O)N[C@H](Cc1ccccc1)C(=O)O) [pE-R-P-R-L-a-H-K-G-P-nle-nva-f-OH]
7.9 nM | [pGlu]RPRL[dV]HKGP[dNle][dA][dF]-OH (SMILES CCCC[C@@H](NC(=O)[C@@H]1CCCN1C(=O)CNC(=O)[C@H](CCCCN)NC(=O)[C@H](Cc1c[nH]cn1)NC(=O)[C@H](NC(=O)[C@H](CC(C)C)NC(=O)[C@H](CCCNC(=N)N)NC(=O)[C@@H]1CCCN1C(=O)[C@H](CCCNC(=N)N)NC(=O)[C@@H]1CCC(=O)N1)C(C)C)C(=O)N[C@H](C)C(=O)N[C@H](Cc1ccccc1)C(=O)O) [pE-R-P-R-L-v-H-K-G-P-nle-a-f-OH]
7.7 nM | [pGlu]RPRL[dD]HKGP[dNle][dA][dF]-OH (SMILES CCCC[C@@H](NC(=O)[C@@H]1CCCN1C(=O)CNC(=O)[C@H](CCCCN)NC(=O)[C@H](Cc1c[nH]cn1)NC(=O)[C@@H](CC(=O)O)NC(=O)[C@H](CC(C)C)NC(=O)[C@H](CCCNC(=N)N)NC(=O)[C@@H]1CCCN1C(=O)[C@H](CCCNC(=N)N)NC(=O)[C@@H]1CCC(=O)N1)C(=O)N[C@H](C)C(=O)N[C@H](Cc1ccccc1)C(=O)O) [pE-R-P-R-L-d-H-K-G-P-nle-a-f-OH]
8.7 nM | [pGlu]RPRL[dA]HKGP[dNva][dA][dF]-OH (SMILES CCC[C@@H](NC(=O)[C@@H]1CCCN1C(=O)CNC(=O)[C@H](CCCCN)NC(=O)[C@H](Cc1c[nH]cn1)NC(=O)[C@@H](C)NC(=O)[C@H](CC(C)C)NC(=O)[C@H](CCCNC(=N)N)NC(=O)[C@@H]1CCCN1C(=O)[C@H](CCCNC(=N)N)NC(=O)[C@@H]1CCC(=O)N1)C(=O)N[C@H](C)C(=O)N[C@H](Cc1ccccc1)C(=O)O) [pE-R-P-R-L-a-H-K-G-P-nva-a-f-OH]
19.5 nM | [pGlu]RPRL[dNva]HKGP[dNle][dA][dF]-OH (SMILES CCCC[C@@H](NC(=O)[C@@H]1CCCN1C(=O)CNC(=O)[C@H](CCCCN)NC(=O)[C@H](Cc1c[nH]cn1)NC(=O)[C@@H](CCC)NC(=O)[C@H](CC(C)C)NC(=O)[C@H](CCCNC(=N)N)NC(=O)[C@@H]1CCCN1C(=O)[C@H](CCCNC(=N)N)NC(=O)[C@@H]1CCC(=O)N1)C(=O)N[C@H](C)C(=O)N[C@H](Cc1ccccc1)C(=O)O) [pE-R-P-R-L-nva-H-K-G-P-nle-a-f-OH]

System: not listed separately
Assay: Surrogate activity-based plasma stability assay
Format: in vitro ADME
Details: 5% rat plasma, 37° C., EC50 at t0 and t24 hrs; Table 2
Description: • Stability assay: stability half-life, (t ½), values were determined by converting peak areas at each time point to percent remaining relative to initial (t=0) peak area. Percent remaining=100×(sample peak area)÷(t=0 peak area) • The natural log of percent remaining values were calculated and plotted against sample time (Microsoft Excel). The slope of this line, k, was determined by linear regression (Microsoft Excel). • Stability half-life was then calculated by the formula, t ½=0.693÷k Surrogate Activity-based Plasma Stability Assay:
The calcium flux protocol described above was followed, with the following changes. The peptides were also incubated with 5% rat plasma (Bioreclamation # [sequence]-M, Na Heparin-treated). Readings were taken at time points t0 and t24 hrs, after incubation in a 37° C. tissue culture incubator. Peptide plasma half-life in minutes was estimated by calculating the following:

Molecule | Surrogate activity-based Plasma stability t½
CCCC[C@@H](NC(=O)[C@@H]1CCCN1C(=O)CNC(=O)[C@H](CCCCN)NC(=O)[C@H](Cc1c[nH]cn1)NC(=O)[C@@H](C)NC(=O)[C@H](Cc1ccc(OCc2ccccc2)cc1)NC(=O)[C@H](CCCNC(=N)N)NC(=O)[C@@H]1CCCN1C(=O)[C@H](CCCNC(=N)N)NC(=O)[C@@H]1CCC(=O)N1)C(=O)N[C@H](C)C(=O)N[C@H](Cc1ccccc1)C(=O)O [Example 27, pE-R-P-R-Y(Bzl)-a-H-K-G-P-nle-a-f-OH] ([pGlu]RPRY(Bn)[dA]HKGP[dNle][dA][dF]-OH) | 5.815 h
